Article PMC10663500, “High-throughput analysis system of interaction kinetics for data-driven antibody design” (Scientific Reports, 2023)

What was measured:
[1] = biological target: T1, mouse programmed cell death protein 1 Fc fusion protein (mPD-1-Fc), mPD-1 C60S (aa 25-167) (Mus musculus, UniProt Q02242, stabilised); assay: SPR; Carterra LSA; Fab from the ammonium sulfate precipitate of the culture supernatant immobilised on a NiHC200M chip; hPD-1 (1-1024 nM) or mPD-1-Fc (4-1024 nM) as analyte, fourfold dilution series, no regeneration; HBS-EP pH 7.4, 25 °C; medians over the spots of a construct, KD = koff/kon; details: one partner purified
T1 construct: not cleaved; source: Expi293F, purified (Protein A, SEC; dimeric fraction); not shown: Fc (human), C-terminal, kept
Procedure, shortened: (§1)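 Human PD-1 (1–1024 nM) or mouse PD-1-Fc (4–1024 nM), in fourfold series, was flowed without regeneration over Fabs captured in duplicate on a NiHC200M chip (Carterra LSA, 25 °C), using 10 min association and 5 min dissociation. The Fabs had been recovered from Brevibacillus culture supernatants by ammonium sulfate precipitation and redissolved in HBS-EP. For binding constants, KD was defined as koff/kon from per-construct medians, with rates fitted by the kdka model under slow- or fast-dissociation settings (best fit) and unconfirmed binders set to kon 10^3 […] and koff 10^−2 s^−1.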

[2] = biological target: T2, human programmed cell death protein 1 (hPD-1) C93S (aa 24-167) (Homo sapiens, UniProt Q15116, C93S); assay: as above; details: one partner purified
T2 construct: made as a fusion with a TEV site and human Fc; the Fc was cut off with TEV protease; source: Expi293F, purified (Protein A, TEV cleavage of Fc, SEC; monomer fractions); not shown: Fc (human), C-terminal, cleaved
T2 sequence (Q15116 24-167 C93S): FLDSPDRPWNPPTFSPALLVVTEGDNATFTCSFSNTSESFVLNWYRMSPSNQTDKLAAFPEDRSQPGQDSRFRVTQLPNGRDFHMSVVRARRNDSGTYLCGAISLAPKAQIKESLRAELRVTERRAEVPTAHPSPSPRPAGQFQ
Procedure, shortened: as §1

| Binder | Kd [1] [nM] | koff [1] [s⁻¹] | kon [1] [M⁻¹ s⁻¹] | Kd [2] [nM] | koff [2] [s⁻¹] | kon [2] [M⁻¹ s⁻¹] |
| --- | --- | --- | --- | --- | --- | --- |
| toripalimab Fab L.P100A (Fab, V domains shown, as the heavy chain of Sm3; light chain of Sm3 with this change; numbers count from the chain's first residue; source: Brevibacillus, culture supernatant (ammonium sulfate precipitate); not shown: 6xHis, C-terminal, kept; 6xHN, C-terminal, kept) VH: QGQLVQSGAEVKKPGASVKVSCKASGYTFTDYEMHWVRQAPIHGLEWIGVIESETGGTAYNQKFKGRVTITADKSTSTAYMELSSLRSEDTAVYYCAREGITTVATTYYWYFDVWGQGTTVTVSS VL: DVVMTQSPLSLPVTLGQPASISCRSSQSIVHSNGNTYLEWYLQKPGQSPQLLIYKVSNRFSGVPDRFSGSGSGTDFTLKISRVEAEDVGVYYCFQGSHVALTFGQGTKLEIK | 89.8 | 0.00349 | 38900 | < 0.513 | < 1e-05 | 19500 |
| toripalimab Fab L.P100D (Fab, V domains shown, as the heavy chain of Sm3; light chain of Sm3 with this change; numbers count from the chain's first residue; source: Brevibacillus, culture supernatant (ammonium sulfate precipitate); not shown: 6xHis, C-terminal, kept; 6xHN, C-terminal, kept) VH: QGQLVQSGAEVKKPGASVKVSCKASGYTFTDYEMHWVRQAPIHGLEWIGVIESETGGTAYNQKFKGRVTITADKSTSTAYMELSSLRSEDTAVYYCAREGITTVATTYYWYFDVWGQGTTVTVSS VL: DVVMTQSPLSLPVTLGQPASISCRSSQSIVHSNGNTYLEWYLQKPGQSPQLLIYKVSNRFSGVPDRFSGSGSGTDFTLKISRVEAEDVGVYYCFQGSHVDLTFGQGTKLEIK | 47.4 | 0.00142 | 30100 | < 1.32 | < 1e-05 | 7580 |
| toripalimab Fab L.P100E (Fab, V domains shown, as the heavy chain of Sm3; light chain of Sm3 with this change; numbers count from the chain's first residue; source: Brevibacillus, culture supernatant (ammonium sulfate precipitate); not shown: 6xHis, C-terminal, kept; 6xHN, C-terminal, kept) VH: QGQLVQSGAEVKKPGASVKVSCKASGYTFTDYEMHWVRQAPIHGLEWIGVIESETGGTAYNQKFKGRVTITADKSTSTAYMELSSLRSEDTAVYYCAREGITTVATTYYWYFDVWGQGTTVTVSS VL: DVVMTQSPLSLPVTLGQPASISCRSSQSIVHSNGNTYLEWYLQKPGQSPQLLIYKVSNRFSGVPDRFSGSGSGTDFTLKISRVEAEDVGVYYCFQGSHVELTFGQGTKLEIK | 19.8 | 0.000491 | 24800 | < 0.554 | < 1e-05 | 18100 |
| toripalimab Fab L.P100F (Fab, V domains shown, as the heavy chain of Sm3; light chain of Sm3 with this change; numbers count from the chain's first residue; source: Brevibacillus, culture supernatant (ammonium sulfate precipitate); not shown: 6xHis, C-terminal, kept; 6xHN, C-terminal, kept) VH: QGQLVQSGAEVKKPGASVKVSCKASGYTFTDYEMHWVRQAPIHGLEWIGVIESETGGTAYNQKFKGRVTITADKSTSTAYMELSSLRSEDTAVYYCAREGITTVATTYYWYFDVWGQGTTVTVSS VL: DVVMTQSPLSLPVTLGQPASISCRSSQSIVHSNGNTYLEWYLQKPGQSPQLLIYKVSNRFSGVPDRFSGSGSGTDFTLKISRVEAEDVGVYYCFQGSHVFLTFGQGTKLEIK | < 1.08 | < 1e-05 | 9270 | 9 | 6.35e-05 | 7060 |
| toripalimab Fab L.P100G (Fab, V domains shown, as the heavy chain of Sm3; light chain of Sm3 with this change; numbers count from the chain's first residue; source: Brevibacillus, culture supernatant (ammonium sulfate precipitate); not shown: 6xHis, C-terminal, kept; 6xHN, C-terminal, kept) VH: QGQLVQSGAEVKKPGASVKVSCKASGYTFTDYEMHWVRQAPIHGLEWIGVIESETGGTAYNQKFKGRVTITADKSTSTAYMELSSLRSEDTAVYYCAREGITTVATTYYWYFDVWGQGTTVTVSS VL: DVVMTQSPLSLPVTLGQPASISCRSSQSIVHSNGNTYLEWYLQKPGQSPQLLIYKVSNRFSGVPDRFSGSGSGTDFTLKISRVEAEDVGVYYCFQGSHVGLTFGQGTKLEIK | 22.8 | 0.000384 | 16800 | 4.99 | 3.76e-05 | 7550 |
| toripalimab Fab L.P100H (Fab, V domains shown, as the heavy chain of Sm3; light chain of Sm3 with this change; numbers count from the chain's first residue; source: Brevibacillus, culture supernatant (ammonium sulfate precipitate); not shown: 6xHis, C-terminal, kept; 6xHN, C-terminal, kept) VH: QGQLVQSGAEVKKPGASVKVSCKASGYTFTDYEMHWVRQAPIHGLEWIGVIESETGGTAYNQKFKGRVTITADKSTSTAYMELSSLRSEDTAVYYCAREGITTVATTYYWYFDVWGQGTTVTVSS VL: DVVMTQSPLSLPVTLGQPASISCRSSQSIVHSNGNTYLEWYLQKPGQSPQLLIYKVSNRFSGVPDRFSGSGSGTDFTLKISRVEAEDVGVYYCFQGSHVHLTFGQGTKLEIK | < 1.06 | < 1e-05 | 9460 | 2.24 | 1.56e-05 | 6960 |
